Read-outs that look alike come from different tables or passages of the source.
B1: human anti-SEB monoclonal antibody 79G9 (antibody, V domains shown)
VH: EVQLEESGAGLLKPSETLSLTCAVYGGSFSGYYWSWIRQAPGKGLEWIGEIDHSGTTNYNPSLKSRVTISVETSKNQFSLRLSSVTAADSAVYYCASSGYCSHGLCPQEDWGQGTLVTVSS
VL: DIELTQSPSFLSASVGDRVAITCRASQGISNYLAWYQQKPGKAPKLLIYAAFVLQSGVPSRFSGSGSGTEFTLTISNLQPEDFATYYCQQLNSYPRAFGPGTKVDIKR
B2: human anti-SEB monoclonal antibody 100C9 (antibody, V domains shown)
VH: EVQLVESGGGLVQPGGSLRLSCSASGFTFSSYWMSWVRQAPGKGLEWVANIIQDGSEKYYADSVKGRLTISRDNAKNSLYLQMNSLRVDDTAVYYCARGYEGCSATRCYLYYFDYWGPGTLVTVSS
VL: SYVLTQPPSVSVSPGQTARITCSGDALPKQYTYWYQQKPGQAPVVVIYKDSERPSGIPERFSGSSSGTTVTVTISGVQAEDEADYYCQSADSSGTSLVFGGGTKLTVLG

What was measured:
[1] = target: T1, Staphylococcus enterotoxin B (Staphylococcus aureus, UniProt P01552 28-266)
T1 sequence: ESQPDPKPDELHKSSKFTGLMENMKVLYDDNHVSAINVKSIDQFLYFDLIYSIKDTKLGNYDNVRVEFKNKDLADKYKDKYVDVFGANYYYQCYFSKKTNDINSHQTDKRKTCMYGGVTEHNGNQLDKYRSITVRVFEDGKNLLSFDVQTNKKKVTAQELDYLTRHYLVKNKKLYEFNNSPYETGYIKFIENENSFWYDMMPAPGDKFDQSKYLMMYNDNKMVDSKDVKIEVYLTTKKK

[2] = target: T1, Staphylococcus enterotoxin B; experiment: cell-based or functional assay
[3] = target: T1, Staphylococcus enterotoxin B; experiment: cell-based or functional assay; remark: listed apart in the source

Binder | Kd [1] [nM] | EC50 of inhibition of SEB-induced IFN-γ production by human PBMC [2] [µg/mL] | EC50 of inhibition of SEB-induced IFN-γ production by human PBMC [3] [ng/mL] | EC50 of inhibition of SEB-induced TNF-α production by human PBMC [3] [ng/mL]
B1 | 25 | 0.125 | 158 | 217
B2 | 9.75 | 0.0766 |  | 

Reference: patent US20140072553A1 (MORPHOTEK, published 2014)
